This is an account of results in patent US20090281024A1.

For assay [1], the target named is MAT CR12 (matriptase CR pair 1-2) (human) (UniProt Q9Y5Y6). Put plainly: relative binding signal under isomolar conditions on MAT CR12 (heading of the figure); solid-phase binding assay.
In assay [2] the target is LRP2 CR89 Y1042W V1047D (human) (UniProt P98164). Put plainly: solid-phase assay, coated CR protein.
Assay [3] concerns the target LRP2 CR89 Y1042W V1047D R1088D (human) (UniProt P98164). Put plainly: solid-phase assay, coated CR protein.

Chain of LRP2 CR89 Y1042W V1047D (human) (P98164 1022-1105 Y1043W/V1048D limits assumed): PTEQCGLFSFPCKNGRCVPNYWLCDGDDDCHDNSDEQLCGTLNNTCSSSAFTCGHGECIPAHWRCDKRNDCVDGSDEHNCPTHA
Chain of RAP d3 (wild-type third domain of the receptor-associated protein) (P30533 235-353): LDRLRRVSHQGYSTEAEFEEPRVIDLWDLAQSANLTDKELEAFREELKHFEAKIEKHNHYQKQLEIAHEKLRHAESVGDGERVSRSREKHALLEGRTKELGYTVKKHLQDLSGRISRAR
Chain of MAT CR12 (matriptase CR pair 1-2) (human) (Q9Y5Y6 452-524 limits assumed): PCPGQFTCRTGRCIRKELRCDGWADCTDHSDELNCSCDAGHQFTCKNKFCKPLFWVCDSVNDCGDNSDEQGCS

For “MatRAP1 N-42 (from UniProt P30533 277-353) (designed binder)”, the fnctn (relative binding signal under isomolar conditions) in assay [1] came to 0.65.
As to “RAP d3 (wild-type third domain of the receptor-associated protein) (from UniProt P30533 235-353) (ligand)”, the % max bind was found to be 11% in assay [2] and 15% in assay [3].
